The target of one test is Aβ1-40 monomers (UniProt P05067). Briefly: ELISA; sandwich ELISA; 1 nM Aβ1-40 monomers or 1 nM Aβ1-42 aggregates held by coated rabbit polyclonal antibodies (C-terminal of Aβ, or Aβ1-42); serial dilutions of the recombinant proteins in 0.1% BSA, 0.05% Tween-20 in PBS, 2 h at RT; goat anti-mouse HRP.
The target of the next test is Aβ1-42 aggregates (UniProt P05067). Described as above.
Test [1] addresses mouse TfR protein (mouse) (UniProt Q62351).

The values below come from paper PMC9720954.

Aβ1-40 monomers, sequence (P05067 672-711): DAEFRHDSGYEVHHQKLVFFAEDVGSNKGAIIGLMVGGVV
Aβ1-42 aggregates, sequence (P05067 672-713): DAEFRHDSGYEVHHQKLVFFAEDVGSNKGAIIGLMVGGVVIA

For sNEP-scFc-scFv8D3 (Fc fusion), the figures for the fold weaker binding than the 3D6 antibody control with Aβ1-40 monomers and in the test with Aβ1-42 aggregates were 50 fold and 100 fold, respectively. This substance showed a brain uptake (%ID per gram brain tissue) 2 h after intravenous injection of the 125I-labelled protein (0.05 mg/kg) in tg-ArcSwe mice, against sNEP without scFv8D3 in test [1] of 20 fold.
